Numbering of substitutions follows the chain as printed.
B1: hu37D3.v28 (antibody, V domains shown)
VH: EVQLVESGGGLVQPGGSLRLSCAASGLIFRSYGMSWVRQAPGKGLEWVATINSGGTYTYYPDSVKGRFTISRDNSKNTLYLQMNSLRAEDTAVYYCANSYSGAMDYWGQGTLVTVSS
VL: DDVLTQTPLSLPVTPGQPASISCRSSQSIVHSNGNTYFEWYLQKPGQSPQLLIYKVSNRFSGVPDRFSGSGSGTDFTLKISRVEAEDVGVYYCFQGSLVPWTFGQGTKVEIK
B2: hu37D3-H9.v30.2 (antibody, V domains shown)
VH: B1 VH
VL: B1 VL with N33T
B3: hu37D3.v28.56 (antibody, V domains shown)
VH: B1 VH
VL: B1 VL with G34Y
B4: hu37D3.v28.E1 (antibody, V domains shown)
VH: B1 VH
VL: B1 VL with H31N
B5: hu37D3-H9.v5.11 (antibody, V domains shown)
VH: B1 VH
VL: B1 VL with D1E, N35S
B6: hu37D3-H9.v5.10 (antibody, V domains shown)
VH: B1 VH
VL: B1 VL with D1E, N35A
B7: hu37D3-H9.v5.7 (antibody, V domains shown)
VH: B1 VH
VL: B1 VL with D1E, N35D
B8: hu37D3-H9.v31.9 (antibody, V domains shown)
VH: B1 VH
VL: B1 VL with G34A, T36I
B9: hu37D3.v28.A2 (antibody, V domains shown)
VH: B1 VH
VL: B1 VL with L98H
B10: hu37D3-H9.v31.6 (antibody, V domains shown)
VH: B1 VH
VL: B1 VL with G34A, N35Y
B11: hu37D3.v28.53 (antibody, V domains shown)
VH: B1 VH
VL: B1 VL with D1E, N33R
B12: hu37D3.v28.54 (antibody, V domains shown)
VH: B1 VH
VL: B1 VL with D1E, N33L
B13: hu37D3-H9.v30.4 (antibody, V domains shown)
VH: B1 VH
VL: B1 VL with N33L
B14: hu37D3-H9.v31.2 (antibody, V domains shown)
VH: B1 VH
VL: B1 VL with G34A, N35V
B15: hu37D3-H9.v31.8 (antibody, V domains shown)
VH: B1 VH
VL: B1 VL with G34A, T36V
B16: hu37D3.v28.57 (antibody, V domains shown)
VH: B1 VH
VL: B1 VL with G34F
B17: hu37D3-H9.v5.9 (antibody, V domains shown)
VH: B1 VH
VL: B1 VL with D1E, N35E
B18: hu37D3.v28.B1 (antibody, V domains shown)
VH: B1 VH
VL: B1 VL with N33I, Y37F
B19: hu37D3.v28.52 (antibody, V domains shown)
VH: B1 VH
VL: B1 VL with D1E, N33K
B20: hu37D3.v28.A6 (antibody, V domains shown)
VH: B1 VH
VL: B1 VL with F38L, L98H
B21: hu37D3.v28.55 (antibody, V domains shown)
VH: B1 VH
VL: B1 VL with G34Q
B22: hu37D3.v28.D1 (antibody, V domains shown)
VH: B1 VH
VL: B1 VL with S32A
B23: hu37D3-H9.v5.8 (antibody, V domains shown)
VH: B1 VH
VL: B1 VL with D1E, N35Q
B24: hu37D3.v28.A4 (antibody, V domains shown)
VH: B1 VH
VL: B1 VL with F38L
notes: also called hu37D3-H9.v28.A4
B25: hu37D3-H9.v5.2 (antibody, V domains shown)
VH: B1 VH
VL: B1 VL with D1E, N33S
B26: hu37D3.v28.C1 (antibody, V domains shown)
VH: B1 VH
VL: B1 VL with G34N
B27: hu37D3-H9.v31.5 (antibody, V domains shown)
VH: B1 VH
VL: B1 VL with G34A, N35F
B28: hu37D3-H9.v31.7 (antibody, V domains shown)
VH: B1 VH
VL: B1 VL with G34A, N35R
B29: hu37D3-H9.v30.1 (antibody, V domains shown)
VH: B1 VH
VL: B1 VL with N33G
B30: hu37D3.v28.C2 (antibody, V domains shown)
VH: B1 VH
VL: B1 VL with G34D
B31: hu37D3.v28.B2 (antibody, V domains shown)
VH: B1 VH
VL: B1 VL with N33M, Y37F
B32: hu37D3-H9.v31.3 (antibody, V domains shown)
VH: B1 VH
VL: B1 VL with G34A, N35I
B33: hu37D3.v28.E2 (antibody, V domains shown)
VH: B1 VH
VL: B1 VL with H31Q
B34: hu37D3.v28.B6 (antibody, V domains shown)
VH: B1 VH
VL: B1 VL with N33D, Y37R
B35: hu37D3-H9.v30.3 (antibody, V domains shown)
VH: B1 VH
VL: B1 VL with N33V

Target: T1, recombinant human Tau monomer, 2N4R isoform (amino acids 2-441) (human, UniProt P10636-8 2-441)
T1 construct: range 2-441; N-terminal His-tag removed with TEV protease; also called monomeric Tau
T1 sequence (P10636 other isoform, or with tags, fused parts or gaps limits assumed): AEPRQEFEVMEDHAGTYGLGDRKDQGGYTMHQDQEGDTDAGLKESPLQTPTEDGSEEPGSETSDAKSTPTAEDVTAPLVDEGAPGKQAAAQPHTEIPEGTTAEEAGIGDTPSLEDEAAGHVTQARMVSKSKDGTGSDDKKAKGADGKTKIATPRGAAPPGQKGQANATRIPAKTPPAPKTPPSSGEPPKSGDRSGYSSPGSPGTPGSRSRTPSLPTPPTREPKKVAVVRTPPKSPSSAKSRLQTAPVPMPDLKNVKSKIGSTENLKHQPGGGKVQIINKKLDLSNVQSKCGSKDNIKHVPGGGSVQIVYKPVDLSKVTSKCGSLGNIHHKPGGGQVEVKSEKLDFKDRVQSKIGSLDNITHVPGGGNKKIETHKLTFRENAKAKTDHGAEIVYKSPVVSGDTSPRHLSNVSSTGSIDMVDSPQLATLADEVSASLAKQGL
Assay: SPR; Normalized Rmax post-stress (2 weeks 40 C) / pre-stress
Experimental: (§1) Briefly, IgGs in 1 mL culuture were captured using tip columns that were custom packed with 20 μL MabSelect SuRe resin (Glygen Corp & GE Healthcare). After washing with 1×PBS pH 7.4, IgGs were eluted into 160 μL of 50 mM phosphoric acid pH 3 and neutralized with 12 μL of 20×PBS pH 11. MabSelect SuRe tip columns were stripped in 0.1 M NaOH and regenerated with 1×PBS pH 7.4 for consecutive use of up to 15 times. Purified antibodies in 96-well format were normalized to 0.1 mg/ml using a Hamilton Star liquid handling robot. The “pre-stress” samples were kept at approximately 4° C. and the “post-stress” samples were incubated at 40° C. for two weeks in a PCR machine. Functional stability of the variants was compared by running surface plasmon resonance kinetics experiments with the “pre-stress” and “post-stress” antibody preps. The antibodies were assessed using a human antibody capture CM5 Series S chip generated using the GE Biacore human IgG capture kit and a Biacore T200 instrument. Antibodies diluted to 2 μg/ml were immobilized using a 15 second injection time and 10 μl/min flow rate. Binding to Tau monomer at 0 nM, 26.5 nM and 265 nM, at 25° C., using a flow rate of 40 μl/min, was monitored for a 180 second association phase followed by a 300 second dissociation phase. Samples were run in 10 mM HEPES pH7.4, 150 mM NaCl, 0.05% Tween 20 (HBSP) using a multi-cycle kinetics format. Data was analyzed using BIAevaluation software, fitting a 1:1 binding model. The resulting affinity (KD) values are shown in FIG. 8A-D. A Stability Index was also calculated, using the rationale that affinity-compromised antibodies (due for example to deamidation of key residues) are expected to contribute equally to the IgG capture level (“Ligand Level”) but to contribute less to the measured Tau binding, and that this would be reflected in the experimentally derived value for Rmax. To account for variations in the amount of each antibody captured, Rmax was normalized for the antibody capture level (as measured by “Ligand Level”, Response Units immobilized during antibody capture). Thus Normalized Rmax is calculated as the experimental Rmax (units=RU) divided by the “Ligand Level” (Evaluation output representing the RU captured during the hIgG capture step, units=RU), and Stability Index is calculated here as Normalized Rmax (post-stress) divided by Normalized Rmax (pre-stress).

Going from B1 to B2, the “Stability Index” value rises from 78% to 96%.

Going from B3 to B4, the “Stability Index” value falls from 76% to 46%.

First: B5
Second: B6
The “Stability Index” value of the first is lower: 71% for the first, 78% for the second.

Compared with B7, B8 is higher in “Stability Index” value: 67% for the first, 81% for the second.

Going from B9 to B10, the “Stability Index” value rises from 72% to 90%.

Going from B11 to B12, the “Stability Index” value rises from 76% to 82%.

First: B13
Second: B14
The “Stability Index” value of the first is lower: 87% for the first, 90% for the second.

First: B15
Second: B16
The “Stability Index” value of the first is lower: 78% for the first, 88% for the second.

Going from B17 to B18, the “Stability Index” value rises from 95% to 101%.

First: B19
Second: B20
The “Stability Index” value of the first is lower: 80% for the first, 82% for the second.

First: B21
Second: B22
The “Stability Index” value of the first is higher: 82% for the first, 73% for the second.

Going from B23 to B24, the “Stability Index” value rises from 90% to 96%.

Going from B25 to B26, the “Stability Index” value falls from 97% to 77%.

Going from B27 to B28, the “Stability Index” value falls from 85% to 83%.

First: B29
Second: B30
The “Stability Index” value of the first is higher: 87% for the first, 75% for the second.

Going from B31 to B32, the “Stability Index” value rises from 83% to 93%.

Compared with B33, B34 is higher in “Stability Index” value: 28% for the first, 46% for the second.

For B35, the “Stability Index” value was 83%.

Target: T1, recombinant human Tau monomer, 2N4R …
Assay: SPR, captured IgG, Tau monomer analyte, 1:1 model; fit-quality column: Yes
Experimental: as §1

Compared with B1, B2 is 4.7-fold higher in Kd: 0.9 nM for the first, 4.2 nM for the second.

Going from B3 to B4, the Kd rises from 5.4 nM to 20.1 nM (3.7-fold). The first binds more tightly here.

First: B5
Second: B6
The Kd of the first is 21-fold higher: 97.7 nM for the first, 4.7 nM for the second.

Compared with B7, B8 is 1.7-fold lower in Kd: 13 nM for the first, 7.5 nM for the second.

First: B9
Second: B10
The Kd of the first is 2.1-fold higher: 32.6 nM for the first, 15.5 nM for the second. The second binds more tightly here.

B11 and B12 are within 1.5-fold of each other in Kd: 22.9 nM for the first, 24.8 nM for the second.

First: B13
Second: B14
The Kd of the first is 2.1-fold higher: 22 nM for the first, 10.6 nM for the second. The second binds more tightly here.

First: B15
Second: B16
The Kd of the first is 2.5-fold higher: 10.9 nM for the first, 4.4 nM for the second. The second binds more tightly here.

Going from B17 to B18, the Kd rises from 5.3 nM to 24.3 nM (4.6-fold). The first binds more tightly here.

Going from B19 to B20, the Kd rises from 17.6 nM to 38.3 nM (2.2-fold). The first binds more tightly here.

Going from B21 to B22, the Kd rises from 2.6 nM to 5.7 nM (2.2-fold).

Compared with B23, B24 is 1.8-fold lower in Kd: 2.2 nM for the first, 1.2 nM for the second. The second binds more tightly here.

First: B25
Second: B26
The Kd of the first is 7.8-fold higher: 10.9 nM for the first, 1.4 nM for the second. The second binds more tightly here.

Compared with B27, B28 is 2.2-fold lower in Kd: 15.2 nM for the first, 6.9 nM for the second. The second binds more tightly here.

Compared with B29, B30 is 2.4-fold lower in Kd: 23.5 nM for the first, 9.6 nM for the second. The second binds more tightly here.

Compared with B31, B32 is 3.2-fold lower in Kd: 31.8 nM for the first, 9.8 nM for the second. The second binds more tightly here.

Compared with B33, B34 is 3.8-fold higher in Kd: 22.5 nM for the first, 85.6 nM for the second. The first binds more tightly here.

For B35, the Kd was 38.1 nM.

Reference: patent publication US20190367592A1 (AC IMMUNE, published 2019)
